# Measurements: PMC2943613 (Nucleic Acids Research, 2010)
# Target: the molecule itself
# Test: SEC
protein,measurement,value
"Thermus thermophilus exonuclease I (TTHB178) (enzyme, Thermus thermophilus HB8, UniProt Q53VZ1 1-296, looked up) MAFGVSHPVALDLEATSTDPSEAEVLEVAAVDGEGRVFHRYLATQRPLPPDHEVFQLTGIPYEEYEAKKVAPKEALEELLAFLGGRPLLGHNLLRYDLPLLQRHLEEAGLPRWQGEALDTLRLAHLLFPTPPGGLEGYRLGDLYAFLLGRPLEGAHRALNDAQATLAVFHRLLDRGRRALAQHPGLVRAWRELGLPEGHLFPEDEGLIKDLLAREADVEAFFVEKEGRPFPAPTDLGPDLLPKPRPAQRIKEFVQVAHGVAGQGLVGRERPLHEVLERGLRLAVGEAEEGAVEKEG",stoichiometry N,2
